Consider 1 molecule from patent US20210122810A1 (Janssen / Centocor, published 2021).

Experiment [1] deals with T1, Tau peptide encompassing residues 299-318 (human).
T1 construct: also called Tau protein (peptide)
T1 peptide: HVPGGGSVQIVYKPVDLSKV
The experiment can be described thus: isothermal titration calorimetry, peptide in cell titrated with IgG, PBS pH 7.4, one set of sites model. (Isothermal titration calorimetry measures the heat released or taken up as one component is titrated into another.)
Protocol: Affinities of the binding molecules of the present invention were determined using a Microcal Auto-iTC200 isothermal titration calorimeter (Malvern). Tau and tau antibodies were dialysed to PBS, pH 7.4 to ensure perfect buffer matching conditions. […] Data was fitted according to a one set of sites model using Microcal PEAQ-ITC Analysis Software (Malvern).

In experiment [2] the target is T1, Tau peptide encompassing residues …. The experiment can be described thus: isothermal titration calorimetry (ratio of the KD values against CBTAU-27.1).

B1: antibody of the present invention (antibody, V domains shown)
VH: QVQLVESGPEMRKPGESLKISCKTSGYIFSDYWTAWVRQLPGKGLQWMGIIYSGDSDTRYHPSVQGHVTMSTDSSLTTAYLQWSSLKASDTGIYYCARLDARVDAGWQLDSWGQGTLVTVSS
VL: DIQLTQSPDSLAVSLGERATINCKSSQSVFYRDNNKNYLAWYQHKSGQPPKLLFFWASSRESGVSDRFSGSGSGTDFTLTIDNLQAEDVALYYCQHYFNIPHNFGQGTKLEIK
notes: also called antibody according to the present invention
By Kd is commonly meant the concentration at which binding is half-saturated. Low readings indicate a tighter complex, high ones a looser complex. B1 displayed a Kd in experiment [1] of 12.8 nM. The “fold improvement in affinity relative to CBTAU-27.1” value in experiment [2] is 50 fold.
